Measured values from PMC12416549 (2024).

T1: TNFR1 (Homo sapiens, UniProt P19438)
T1 chain: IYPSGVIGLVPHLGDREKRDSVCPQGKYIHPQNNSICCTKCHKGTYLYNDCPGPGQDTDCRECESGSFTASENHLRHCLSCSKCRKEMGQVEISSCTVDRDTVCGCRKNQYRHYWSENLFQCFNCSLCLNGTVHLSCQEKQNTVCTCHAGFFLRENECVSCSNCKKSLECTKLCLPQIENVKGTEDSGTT


Target: T1, TNFR1
Assay: yeast display SC50

Binder	apparent Kd (screen) [nM]
V85M (designed binder) MTLQELLREEALRRAEAEAFRYALELLAEKFPEQKEYLLDLAEEIESQIRSLSGVDVEDVRKFLDKEWAWVKELLAEHPAELAEMEAARAARLAELRAEVEAKVAA	0.49
E25M (designed binder) MTLQELLREEALRRAEAEAFRYALMLLAEKFPEQKEYLLDLAEEIESQIRSLSGVDVEDVRKFLDKEWAWVKELLAEHPAELAEVEAARAARLAELRAEVEAKVAA	0.368
K66C (designed binder) MTLQELLREEALRRAEAEAFRYALELLAEKFPEQKEYLLDLAEEIESQIRSLSGVDVEDVRKFLDCEWAWVKELLAEHPAELAEVEAARAARLAELRAEVEAKVAA	1.4
E10A (designed binder) MTLQELLREAALRRAEAEAFRYALELLAEKFPEQKEYLLDLAEEIESQIRSLSGVDVEDVRKFLDKEWAWVKELLAEHPAELAEVEAARAARLAELRAEVEAKVAA	5.31
S51I (designed binder) MTLQELLREEALRRAEAEAFRYALELLAEKFPEQKEYLLDLAEEIESQIRILSGVDVEDVRKFLDKEWAWVKELLAEHPAELAEVEAARAARLAELRAEVEAKVAA	1.86
A98T (designed binder) MTLQELLREEALRRAEAEAFRYALELLAEKFPEQKEYLLDLAEEIESQIRSLSGVDVEDVRKFLDKEWAWVKELLAEHPAELAEVEAARAARLAELRTEVEAKVAA	0.539
V55S (designed binder) MTLQELLREEALRRAEAEAFRYALELLAEKFPEQKEYLLDLAEEIESQIRSLSGSDVEDVRKFLDKEWAWVKELLAEHPAELAEVEAARAARLAELRAEVEAKVAA	1.86
A90V (designed binder) MTLQELLREEALRRAEAEAFRYALELLAEKFPEQKEYLLDLAEEIESQIRSLSGVDVEDVRKFLDKEWAWVKELLAEHPAELAEVEAARVARLAELRAEVEAKVAA	0.593
A42H (designed binder) MTLQELLREEALRRAEAEAFRYALELLAEKFPEQKEYLLDLHEEIESQIRSLSGVDVEDVRKFLDKEWAWVKELLAEHPAELAEVEAARAARLAELRAEVEAKVAA	3
E16G (designed binder) MTLQELLREEALRRAGAEAFRYALELLAEKFPEQKEYLLDLAEEIESQIRSLSGVDVEDVRKFLDKEWAWVKELLAEHPAELAEVEAARAARLAELRAEVEAKVAA	0.593
Q4H (designed binder) MTLHELLREEALRRAEAEAFRYALELLAEKFPEQKEYLLDLAEEIESQIRSLSGVDVEDVRKFLDKEWAWVKELLAEHPAELAEVEAARAARLAELRAEVEAKVAA	0.79
E101S (designed binder) MTLQELLREEALRRAEAEAFRYALELLAEKFPEQKEYLLDLAEEIESQIRSLSGVDVEDVRKFLDKEWAWVKELLAEHPAELAEVEAARAARLAELRAEVSAKVAA	0.956
R92I (designed binder) MTLQELLREEALRRAEAEAFRYALELLAEKFPEQKEYLLDLAEEIESQIRSLSGVDVEDVRKFLDKEWAWVKELLAEHPAELAEVEAARAAILAELRAEVEAKVAA	0.49
E36M (designed binder) MTLQELLREEALRRAEAEAFRYALELLAEKFPEQKMYLLDLAEEIESQIRSLSGVDVEDVRKFLDKEWAWVKELLAEHPAELAEVEAARAARLAELRAEVEAKVAA	0.49
A76F (designed binder) MTLQELLREEALRRAEAEAFRYALELLAEKFPEQKEYLLDLAEEIESQIRSLSGVDVEDVRKFLDKEWAWVKELLFEHPAELAEVEAARAARLAELRAEVEAKVAA	0.446
V55M (designed binder) MTLQELLREEALRRAEAEAFRYALELLAEKFPEQKEYLLDLAEEIESQIRSLSGMDVEDVRKFLDKEWAWVKELLAEHPAELAEVEAARAARLAELRAEVEAKVAA	2.73
L52G (designed binder) MTLQELLREEALRRAEAEAFRYALELLAEKFPEQKEYLLDLAEEIESQIRSGSGVDVEDVRKFLDKEWAWVKELLAEHPAELAEVEAARAARLAELRAEVEAKVAA	1.27
K72E (designed binder) MTLQELLREEALRRAEAEAFRYALELLAEKFPEQKEYLLDLAEEIESQIRSLSGVDVEDVRKFLDKEWAWVEELLAEHPAELAEVEAARAARLAELRAEVEAKVAA	0.869

Binder	apparent Kd (screen) [nM]
Y37T (designed binder) MTLQELLREEALRRAEAEAFRYALELLAEKFPEQKETLLDLAEEIESQIRSLSGVDVEDVRKFLDKEWAWVKELLAEHPAELAEVEAARAARLAELRAEVEAKVAA	10.4
K103L (designed binder) MTLQELLREEALRRAEAEAFRYALELLAEKFPEQKEYLLDLAEEIESQIRSLSGVDVEDVRKFLDKEWAWVKELLAEHPAELAEVEAARAARLAELRAEVEALVAA	1.86
E5F (designed binder) MTLQFLLREEALRRAEAEAFRYALELLAEKFPEQKEYLLDLAEEIESQIRSLSGVDVEDVRKFLDKEWAWVKELLAEHPAELAEVEAARAARLAELRAEVEAKVAA	0.653
E33Q (designed binder) MTLQELLREEALRRAEAEAFRYALELLAEKFPQQKEYLLDLAEEIESQIRSLSGVDVEDVRKFLDKEWAWVKELLAEHPAELAEVEAARAARLAELRAEVEAKVAA	0.49
E84A (designed binder) MTLQELLREEALRRAEAEAFRYALELLAEKFPEQKEYLLDLAEEIESQIRSLSGVDVEDVRKFLDKEWAWVKELLAEHPAELAAVEAARAARLAELRAEVEAKVAA	0.718
S53T (designed binder) MTLQELLREEALRRAEAEAFRYALELLAEKFPEQKEYLLDLAEEIESQIRSLTGVDVEDVRKFLDKEWAWVKELLAEHPAELAEVEAARAARLAELRAEVEAKVAA	0.49
L39S (designed binder) MTLQELLREEALRRAEAEAFRYALELLAEKFPEQKEYLSDLAEEIESQIRSLSGVDVEDVRKFLDKEWAWVKELLAEHPAELAEVEAARAARLAELRAEVEAKVAA	2.25
Q48H (designed binder) MTLQELLREEALRRAEAEAFRYALELLAEKFPEQKEYLLDLAEEIESHIRSLSGVDVEDVRKFLDKEWAWVKELLAEHPAELAEVEAARAARLAELRAEVEAKVAA	0.653
E77M (designed binder) MTLQELLREEALRRAEAEAFRYALELLAEKFPEQKEYLLDLAEEIESQIRSLSGVDVEDVRKFLDKEWAWVKELLAMHPAELAEVEAARAARLAELRAEVEAKVAA	0.593
K103Q (designed binder) MTLQELLREEALRRAEAEAFRYALELLAEKFPEQKEYLLDLAEEIESQIRSLSGVDVEDVRKFLDKEWAWVKELLAEHPAELAEVEAARAARLAELRAEVEAQVAA	0.539
E86C (designed binder) MTLQELLREEALRRAEAEAFRYALELLAEKFPEQKEYLLDLAEEIESQIRSLSGVDVEDVRKFLDKEWAWVKELLAEHPAELAEVCAARAARLAELRAEVEAKVAA	0.653
V57I (designed binder) MTLQELLREEALRRAEAEAFRYALELLAEKFPEQKEYLLDLAEEIESQIRSLSGVDIEDVRKFLDKEWAWVKELLAEHPAELAEVEAARAARLAELRAEVEAKVAA	2.73
D40G (designed binder) MTLQELLREEALRRAEAEAFRYALELLAEKFPEQKEYLLGLAEEIESQIRSLSGVDVEDVRKFLDKEWAWVKELLAEHPAELAEVEAARAARLAELRAEVEAKVAA	1.05
V60R (designed binder) MTLQELLREEALRRAEAEAFRYALELLAEKFPEQKEYLLDLAEEIESQIRSLSGVDVEDRRKFLDKEWAWVKELLAEHPAELAEVEAARAARLAELRAEVEAKVAA	12.5
V60S (designed binder) MTLQELLREEALRRAEAEAFRYALELLAEKFPEQKEYLLDLAEEIESQIRSLSGVDVEDSRKFLDKEWAWVKELLAEHPAELAEVEAARAARLAELRAEVEAKVAA	0.446
A80E (designed binder) MTLQELLREEALRRAEAEAFRYALELLAEKFPEQKEYLLDLAEEIESQIRSLSGVDVEDVRKFLDKEWAWVKELLAEHPEELAEVEAARAARLAELRAEVEAKVAA	0.49
E84Y (designed binder) MTLQELLREEALRRAEAEAFRYALELLAEKFPEQKEYLLDLAEEIESQIRSLSGVDVEDVRKFLDKEWAWVKELLAEHPAELAYVEAARAARLAELRAEVEAKVAA	0.718
